Laboratory results: patent US20200199231A1 (Genmab, published 2020)

T1: CD20 KDD mutant (human, UniProt P11836 1-297)
T1 construct: whole, on cells; Transiently expressed in HEK293F cells; also called T159K/N163D/N166D
T1 sequence (looked up): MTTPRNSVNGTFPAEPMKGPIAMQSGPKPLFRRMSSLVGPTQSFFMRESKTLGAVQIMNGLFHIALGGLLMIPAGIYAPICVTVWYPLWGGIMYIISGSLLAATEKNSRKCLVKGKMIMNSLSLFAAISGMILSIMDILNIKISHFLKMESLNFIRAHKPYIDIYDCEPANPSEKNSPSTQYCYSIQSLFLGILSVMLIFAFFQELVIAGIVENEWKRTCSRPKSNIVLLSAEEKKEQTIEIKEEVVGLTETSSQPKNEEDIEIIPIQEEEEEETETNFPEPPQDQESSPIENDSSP

T2: CD20-AxP (human, UniProt P11836 1-297)
T2 construct: whole, on cells; Transiently expressed in HEK293F cells; also called AxP mutant; CD20 mutant (CD20-AxP)
T2 sequence (looked up): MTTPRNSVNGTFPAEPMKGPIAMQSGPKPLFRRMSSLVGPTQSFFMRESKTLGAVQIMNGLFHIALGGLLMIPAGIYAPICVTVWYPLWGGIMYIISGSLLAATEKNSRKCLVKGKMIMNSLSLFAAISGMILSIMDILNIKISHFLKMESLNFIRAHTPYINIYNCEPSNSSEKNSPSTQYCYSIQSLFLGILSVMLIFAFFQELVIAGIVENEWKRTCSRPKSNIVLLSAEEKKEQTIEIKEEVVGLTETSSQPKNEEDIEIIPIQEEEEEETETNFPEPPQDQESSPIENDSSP

T3: human CD20 (human, UniProt P11836 1-297)
T3 construct: whole, on cells; On Daudi and other human B cell lines, on human B cells in blood, or transiently expressed in HEK293F cells (construct pEE12.4CD20HS-GA); also called wild type CD20; WT CD20
T3 sequence (looked up): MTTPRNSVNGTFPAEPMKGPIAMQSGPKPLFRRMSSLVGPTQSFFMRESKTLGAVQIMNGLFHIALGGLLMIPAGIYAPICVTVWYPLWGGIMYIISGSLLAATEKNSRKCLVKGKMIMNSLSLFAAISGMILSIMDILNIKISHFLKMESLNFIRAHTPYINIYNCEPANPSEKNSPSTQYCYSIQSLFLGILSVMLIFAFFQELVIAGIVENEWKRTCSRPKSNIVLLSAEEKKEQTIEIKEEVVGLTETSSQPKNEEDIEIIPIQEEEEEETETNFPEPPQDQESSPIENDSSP


How the values were obtained:
CD20 KDD mutant [1] = molecular target: T1, CD20 KDD mutant; test: flow cytometry, HEK293F cells expressing CD20 KDD mutant
Experimental: (§1) PCR was performed on a Tgradient Thermocycler 96 (Biometra) using a 35 cycle program of: +95° C. for 15 min, followed by 35 cycles of: +94° C. for 30 sec, anneal: 55° C. for 30 sec and extension: +72° C. for 2 min, followed by a final extension step at 72° C. for 10 min and subsequent storage at 4° C. The completed reactions were analyzed by agarose gel electrophoresis. See Table 11 for details of primer pairs used for colony PCR. DNA sequencing: Plasmid DNA samples were send to AGOWA (Berlin, Germany) for sequence analysis. Sequences were analyzed using the VectorNTI software package (Informax, Frederick, Md., USA).
(§2) Mutagenesis: The mutagenesis was performed, using the QuikChange® XL Site-Directed Mutagenesis kit (Cat 200517-5, Lot 1120630, Stratagene Europe) according to the manufacturer's instructions. Mutagenesis reactions were concentrated using ethanol precipitation and transformed into either oneshot DH5α-TIR competent E. coli cells or electroporated into ElectroTen-Blue® Electroporation-Competent Cells. Colonies were checked by colony PCR and restriction digestion prior to transfection. […] Anti-CD20 Antibody binding: HEK293F cells were taken up in staining buffer (PBS supplemented with 0.1% BSA and 0.02% NaN₃) and added to round bottom plates (1-3×10⁵/well in 100 μL). […] After washing twice in staining buffer, cells were incubated in 50 μL secondary antibody at 4° C. for 30 min. As a secondary antibody, R-Phycoerythrin (PE)-conjugated goat-anti-human IgG F(ab′)₂ was used, as described supra. Next, cells were washed once in staining buffer, re-suspended in 150 μL staining buffer and analyzed on a flow cytometer (FACSCanto-720, Becton Dickinson, San Diego, Calif., USA) and 10,000 events per sample were acquired at high flow rate. Binding curves were analyzed using non-linear regression (sigmoidal dose-response with variable slope) using GraphPad Prism V75.04 software (GraphPad Software, San Diego, Calif., USA).

CD20-AxP [2] = molecular target: T2, CD20-AxP; test: flow cytometry, HEK293F transfectants, MFI mutant/MFI wt at 10 µg/mL
Experimental: (§3) As a secondary antibody, R-Phycoerythrin (PE)-conjugated goat-anti-human IgG F(ab′)₂ was used, as described supra. Next, cells were washed once in staining buffer, re-suspended in 150 μL staining buffer and analyzed on a flow cytometer (FACSCanto-720, Becton Dickinson, San Diego, Calif., USA) and 10,000 events per sample were acquired at high flow rate. Binding curves were analyzed using non-linear regression (sigmoidal dose-response with variable slope) using GraphPad Prism V75.04 software (GraphPad Software, San Diego, Calif., USA).
(§4) Numbers indicate the percentage of binding to the CD20 mutants, relative to binding to wild type CD20, at 10 μg/mL. The percentage of binding was calculated by the following formula: (MFI binding to CD20 mutant)/(MFI binding CD20 wt) × 100%

CD20 KDD mutant [3] = molecular target: T1, CD20 KDD mutant; test: as above
Experimental: as §3, §4

human CD20 = molecular target: T3, human CD20; test: flow cytometry on HEK293F cells transiently expressing wild type CD20; PE-conjugated goat anti-human IgG F(ab')2; MFI
Experimental: as §1, §2

CD20-AxP [4] = molecular target: T2, CD20-AxP; test: flow cytometry on HEK293F cells transiently expressing CD20-AxP (A170S/P172S); PE-conjugated goat anti-human IgG F(ab')2; MFI
Experimental: as §1, §2

Binder	binding result (CD20 KDD mutant [1])	% of wt CD20 binding (CD20-AxP [2])	% of wt CD20 binding (CD20 KDD mutant [3])	EC50 (read off the curve) (human CD20)	EC50 (read off the curve) (CD20-AxP [4])
bsIgG1-huCD3-H1L1-FEALxCD20-7D8-FEAR (bispecific antibody, Made by 2-MEA-induced Fab-arm exchange; also called CD3xCD20; CD3x7D8) heavy 1: not shown light: not shown heavy 2: EVQLVESGGGLVQPDRSLRLSCAASGFTFHDYAMHWVRQAPGKGLEWVSTISWNSGTIGYADSVKGRFTISRDNAKNSLYLQMNSLRAEDTALYYCAKDIQYGNYYYGMDVWGQGTTVTVSSASTKGPSVFPLAPSSKSTSGGTAALGCLVKDYFPEPVTVSWNSGALTSGVHTFPAVLQSSGLYSLSSVVTVPSSSLGTQTYICNVNHKPSNTKVDKRVEPKSCDKTHTCPPCPAPEFEGGPSVFLFPPKPKDTLMISRTPEVTCVVVAVSHEDPEVKFNWYVDGVEVHNAKTKPREEQYNSTYRVVSVLTVLHQDWLNGKEYKCKVSNKALPAPIEKTISKAKGQPREPQVYTLPPSREEMTKNQVSLTCLVKGFYPSDIAVEWESNGQPENNYKTTPPVLDSDGSFFLYSRLTVDKSRWQQGNVFSCSVMHEALHNHYTQKSLSLSPGK VL: EIVLTQSPATLSLSPGERATLSCRASQSVSSYLAWYQQKPGQAPRLLIYDASNRATGIPARFSGSGSGTDFTLTISSLEPEDFAVYYCQQRSNWPITFGQGTRLEIK	no binding (tested: 0.0015-10 µg/mL)	103%	4%	~0.1 µg/mL	~0.2 µg/mL
bsIgG1-huCD3-H1L1-FEALxCD20-11B8-FEAR (bispecific antibody, also called CD3x11B8; huCD3x11B8) heavy 1: not shown light: not shown heavy 2: EVQLVQSGGGLVHPGGSLRLSCTGSGFTFSYHAMHWVRQAPGKGLEWVSIIGTGGVTYYADSVKGRFTISRDNVKNSLYLQMNSLRAEDMAVYYCARDYYGAGSFYDGLYGMDVWGQGTTVTVSSASTKGPSVFPLAPSSKSTSGGTAALGCLVKDYFPEPVTVSWNSGALTSGVHTFPAVLQSSGLYSLSSVVTVPSSSLGTQTYICNVNHKPSNTKVDKRVEPKSCDKTHTCPPCPAPEFEGGPSVFLFPPKPKDTLMISRTPEVTCVVVAVSHEDPEVKFNWYVDGVEVHNAKTKPREEQYNSTYRVVSVLTVLHQDWLNGKEYKCKVSNKALPAPIEKTISKAKGQPREPQVYTLPPSREEMTKNQVSLTCLVKGFYPSDIAVEWESNGQPENNYKTTPPVLDSDGSFFLYSRLTVDKSRWQQGNVFSCSVMHEALHNHYTQKSLSLSPGK VL: EIVLTQSPATLSLSPGERATLSCRASQSVSSYLAWYQQKPGQAPRLLIYDASNRATGIPARFSGSGSGTDFTLTISSLEPEDFAVYYCQQRSDWPLTFGGGTKVEIK	–	95%	67%	~0.1 µg/mL	~0.2 µg/mL
bsIgG1-huCD3-H1L1-FEALxCD20-2F2-FEAR (bispecific antibody, also called huCD3x2F2) heavy 1: not shown light: not shown heavy 2: EVQLVESGGGLVQPGRSLRLSCAASGFTFNDYAMHWVRQAPGKGLEWVSTISWNSGSIGYADSVKGRFTISRDNAKKSLYLQMNSLRAEDTALYYCAKDIQYGNYYYGMDVWGQGTTVTVSSASTKGPSVFPLAPSSKSTSGGTAALGCLVKDYFPEPVTVSWNSGALTSGVHTFPAVLQSSGLYSLSSVVTVPSSSLGTQTYICNVNHKPSNTKVDKRVEPKSCDKTHTCPPCPAPEFEGGPSVFLFPPKPKDTLMISRTPEVTCVVVAVSHEDPEVKFNWYVDGVEVHNAKTKPREEQYNSTYRVVSVLTVLHQDWLNGKEYKCKVSNKALPAPIEKTISKAKGQPREPQVYTLPPSREEMTKNQVSLTCLVKGFYPSDIAVEWESNGQPENNYKTTPPVLDSDGSFFLYSRLTVDKSRWQQGNVFSCSVMHEALHNHYTQKSLSLSPGK VL: EIVLTQSPATLSLSPGERATLSCRASQSVSSYLAWYQQKPGQAPRLLIYDASNRATGIPARFSGSGSGTDFTLTISSLEPEDFAVYYCQQRSNWPITFGQGTRLEIK	no binding (tested: 0.0015-10 µg/mL)	98%	4%	~0.1 µg/mL	~0.2 µg/mL
